Assay results: patent US20230133381A1
Numbering of substitutions follows the chain as printed.

B1: DA8 (antibody, V domains shown)
VH: EVQLVESGGGLVQPGGSLRLSCAASGFTFSSFNMLWVRQAPGKGLEWVAGIGKSDRYTGYGSAVKGRFTISRDDSKSTVYLQMNSLRAEDTAVYYCVRDAGSGCGSGGWTGACIDTWGQGTLVTVSS
VL: DIQMTQSPSSLSASVGDRVTITCSGGDSYAGSYYYGWYQQKPGKAPKTLIYNNNNRPSGVPSRFSGSGSGTDFTLTISSLQPEDFATYYCGSRDSSYVGIFGQGTKVEIK
B2: DA22 (antibody, V domains shown)
VH: B1 VH with G103P
VL: B1 VL with G68T
B3: DA15 (antibody, V domains shown)
VH: B1 VH with D74T, S77N, V79A, V97S
VL: B1 VL with G68R, S96D, Y97G, V98G, I100R
B4: DA18 (antibody, V domains shown)
VH: B1 VH
VL: B1 VL with G68R, S96D, Y97G, V98G, I100R
B5: DA17 (antibody, V domains shown)
VH: B1 VH
VL: B1 VL with R56K, P57A, S58K, G68R
B6: DA5 (antibody, V domains shown)
VH: B1 VH with V79A
VL: B1 VL with G68T
B7: DA23 (antibody, V domains shown)
VH: B1 VH with G103P, S106K
VL: B1 VL with G68T
B8: DA9 (antibody, V domains shown)
VH: B1 VH with V79L
VL: B1 VL with G68R
B9: D0 (antibody, V domains shown)
VH: AVTLDESGGGLQTPGGGLSLVCKGSGFTFSSFNMLWVRQAPGKGLEWVAGIGKSDRYTGYGSAVKGRATISRDDGQSTVRLQLNNLRAEDTGTYYCVKDAGSGCGSGGWTGACIDTWGHGTEVIVSS
VL: LTQPSSVSANLGGTVEITCSGGDSYAGSYYYGWYQQKAPGSAPVTVIYNNNNRPSNIPSRFSGSTSGSTATLTITGVQAEDEAVYFCGSRDSSYVGIFGAGTTLTVL
B10: DA29 (antibody, V domains shown)
VH: B9 VH with V79A
VL: B9 VL with V84T
B11: DA31 (antibody, V domains shown)
VH: B9 VH with V79A, L83M, N85S
VL: B9 VL with V84T
B12: DA30 (antibody, V domains shown)
VH: B9 VH with V79A, R80Y, L83M, N85S
VL: B9 VL with V84T, F86Y
B13: DA33 (antibody, V domains shown)
VH: B9 VH with V79A, G92A, T93V
VL: B9 VL with V84T
B14: DA26 (antibody, V domains shown)
VH: B9 VH with R80Y, L83M, N85S
VL: B9 VL with V84T, F86Y
B15: DA28 (antibody, V domains shown)
VH: B9 VH with V79A
VL: B9 VL

biological target: human DR5 (human); experiment: SPR (BIAcore X100), human DR5 on CM5 chip, IgG injected, 1:1 Langmuir model

Row | Kd | koff | kon | Molecule
1 | < 6.25 pM | < 1e-05 s⁻¹ | 1.6e+06 M⁻¹ s⁻¹ | B1
2 | 34.2 pM | 3.19e-05 s⁻¹ | 932000 M⁻¹ s⁻¹ | B2
3 | 1.09 pM | 2.78e-06 s⁻¹ | 2.56e+06 M⁻¹ s⁻¹ | B3
4 | 27.7 pM | 3.67e-05 s⁻¹ | 1.33e+06 M⁻¹ s⁻¹ | B4
5 | 23.5 pM | 5.97e-05 s⁻¹ | 2.54e+06 M⁻¹ s⁻¹ | B5
6 | < 8.33 pM | < 1e-05 s⁻¹ | 1.2e+06 M⁻¹ s⁻¹ | B6
7 | 40.3 pM | 2.8e-05 s⁻¹ | 696000 M⁻¹ s⁻¹ | B7
8 | 0.071 pM | 4e-07 s⁻¹ | 5.6e+06 M⁻¹ s⁻¹ | B8
9 | 15.2 pM | 2.26e-05 s⁻¹ | 1.49e+06 M⁻¹ s⁻¹ | B9
10 | 69.8 pM | 8.47e-05 s⁻¹ | 1.21e+06 M⁻¹ s⁻¹ | B10
11 | 70.6 pM | 8.79e-05 s⁻¹ | 1.24e+06 M⁻¹ s⁻¹ | B11
12 | 77.4 pM | 7.97e-05 s⁻¹ | 1.03e+06 M⁻¹ s⁻¹ | B12
13 | 78.8 pM | 9.77e-05 s⁻¹ | 1.24e+06 M⁻¹ s⁻¹ | B13
14 | 1.01 pM | 1.1e-06 s⁻¹ | 1.09e+06 M⁻¹ s⁻¹ | B14
15 | 3.89 pM | 4.52e-06 s⁻¹ | 1.16e+06 M⁻¹ s⁻¹ | B15

biological target: human DR5 (human); experiment: ELISA: human DR5 coated on the plate (10 ng/ml), antibody titrated, anti-human Fc-HRP, TMB, absorbance at 450 nm

Row | EC50 (read off the curve) | Molecule
16 | 0.02 mg/L | B1
17 | 0.02 mg/L | B2
18 | 0.01 mg/L | B3
19 | 0.03 mg/L | B4
20 | 0.03 mg/L | B5
21 | 0.03 mg/L | B6
22 | 0.01 mg/L | B7
23 | 0.02 mg/L | B8
24 | 0.006 mg/L | B9
25 | 0.01 mg/L | B10
26 | 0.02 mg/L | B11
27 | 0.02 mg/L | B12
28 | 0.02 mg/L | B13
29 | 0.02 mg/L | B14
30 | 0.02 mg/L | B15

biological target: human DR5 (human); experiment: TRAIL competitive ELISA: human DR5 coated on the plate (0.1 ug/ml), TRAIL titrated against the binding of control antibody AP, bound AP detected with anti-human Fc-HRP, ABTS, absorbance at 405 nm

Row | IC50 (read off the curve) | Molecule
31 | 5000 pM | TRAIL protein (from UniProt P50591 114-281) (ligand)
